Measured values from PMC12199146.

Biological target: T1, Endonuclease V (EcEndoV), wild-type (Escherichia coli) (UniProt P68739)
T1 sequence: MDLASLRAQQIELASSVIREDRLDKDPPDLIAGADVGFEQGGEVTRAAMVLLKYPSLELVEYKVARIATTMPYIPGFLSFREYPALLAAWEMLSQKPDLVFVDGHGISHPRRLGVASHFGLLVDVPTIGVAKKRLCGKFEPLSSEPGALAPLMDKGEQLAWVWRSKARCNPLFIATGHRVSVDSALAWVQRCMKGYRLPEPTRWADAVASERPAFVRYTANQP
Experiment: EMSA
Details: 5 mM Mg2+; pattern similar to A-RNA; one inosine; EMSA: 25 mM sodium phosphate pH 6.5, 50-300 mM NaCl (500 mM in Fig. S17E), 1 mM DTT, 5 mM MgCl2, 30 min on ice, 2 pmol RNA in 10 ul, 12% native gel in TBE at …

1I-RNA (single-edited 20-mer dsRNA, one I:U pair)
binding signal (fold KD vs I-RNA): 2
